The source of these data is patent US20240092857A1.

The subject of data set [1] is DLK1 extracellular domain (ECD), soluble, exogenously added.
The target in the next data set is Presenilin-1 (UniProt P49768). Put plainly: STED microscopy of KG1a-DLK1-GFP cells, 1864 condensates over 10 images.
A further data set deals with TGFBR1 (UniProt P36897). In words: STED microscopy of KG1a-DLK1-GFP cells, 3691 condensates over 10 images.
Sequence of UniProt P36897 (P36897 34-503 limits assumed): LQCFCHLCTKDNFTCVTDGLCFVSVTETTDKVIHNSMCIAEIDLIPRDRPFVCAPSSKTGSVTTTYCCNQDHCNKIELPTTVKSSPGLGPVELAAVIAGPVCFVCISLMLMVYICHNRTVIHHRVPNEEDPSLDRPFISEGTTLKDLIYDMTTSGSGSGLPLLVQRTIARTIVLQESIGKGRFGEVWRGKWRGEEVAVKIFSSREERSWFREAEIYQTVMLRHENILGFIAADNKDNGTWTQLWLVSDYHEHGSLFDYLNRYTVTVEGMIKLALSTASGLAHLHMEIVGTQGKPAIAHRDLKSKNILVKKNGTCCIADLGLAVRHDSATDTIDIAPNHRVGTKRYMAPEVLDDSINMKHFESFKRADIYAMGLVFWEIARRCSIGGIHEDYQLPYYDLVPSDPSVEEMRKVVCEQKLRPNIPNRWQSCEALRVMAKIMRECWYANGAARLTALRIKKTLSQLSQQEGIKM

Presenilin-1: in data set [1], the “Notch receptor cleavage, western blot of Notch1 cleaved at Valine 1744 (FIG. 14B)” value is on record as “reduces Notch receptor cleavage”.

In the data set with Presenilin-1, “full-length DLK1 isoform with a C-terminal fusion to GFP, expressed in KG1a cells (from UniProt P80370 24-383)” had a percent of DLK1 in the PM that overlaps with PSEN1 (co-localization) of 80% and a percent of PSEN1 that overlaps with DLK1 (co-localization) of 75%. Further, in the data set with TGFBR1, the percent of DLK1 in the PM that overlaps with TGFBR1 (co-localization) was found to be 75% and the percent of TGFBR1 that overlaps with DLK1 (co-localization) was 75%.
